The record followed here is publication PMC9409550.

Common to all, as to test: flow cytometry on cells
For assay [1], the target named is BANAL-236 RBD, yeast-displayed (bat sarbecovirus BANAL-236).
Assay [2] concerns the target BANAL-103 RBD, yeast-displayed (bat sarbecovirus BANAL-103).
In assay [3] the target is Khosta-2 RBD, yeast-displayed (bat sarbecovirus Khosta-2).
The target in assay [4] is WIV16 RBD, yeast-displayed (bat sarbecovirus WIV16).
For assay [5], the target named is Rs4874 RBD, yeast-displayed (bat sarbecovirus Rs4874).

Chain of CDY14HL-Fc1 (Q9BYF1 18-615): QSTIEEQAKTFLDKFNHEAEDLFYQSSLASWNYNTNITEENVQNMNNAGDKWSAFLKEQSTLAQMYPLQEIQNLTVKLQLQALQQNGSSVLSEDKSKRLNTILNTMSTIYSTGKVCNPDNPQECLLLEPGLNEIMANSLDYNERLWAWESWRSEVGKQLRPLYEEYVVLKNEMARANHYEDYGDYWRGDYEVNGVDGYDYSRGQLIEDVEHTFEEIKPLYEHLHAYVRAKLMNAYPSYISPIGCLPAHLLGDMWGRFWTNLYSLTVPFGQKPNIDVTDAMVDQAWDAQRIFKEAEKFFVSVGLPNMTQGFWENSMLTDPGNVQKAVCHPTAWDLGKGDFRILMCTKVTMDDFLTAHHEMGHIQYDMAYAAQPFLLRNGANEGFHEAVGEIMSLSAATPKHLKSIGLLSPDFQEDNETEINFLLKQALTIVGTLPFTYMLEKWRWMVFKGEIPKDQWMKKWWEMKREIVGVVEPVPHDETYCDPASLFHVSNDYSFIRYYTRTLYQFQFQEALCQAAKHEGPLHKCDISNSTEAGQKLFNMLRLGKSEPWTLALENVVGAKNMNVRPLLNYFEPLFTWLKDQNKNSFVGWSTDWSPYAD

Consider “CDY14HL-Fc1 (from UniProt Q9BYF1 18-615) (Fc fusion)”, for which the Kd – broadly, the constant that tells how readily two partners part at equilibrium – in assay [1] amounted to 0.24 nM; in assay [2], 0.3 nM; in assay [3], 1.9 nM; in assay [4], 0.24 nM; in assay [5], 0.23 nM.
